B1: Two-component response regulator-like APRR1 (Arabidopsis thaliana (Mouse-ear cress)), Q9LKL2 (parent)
chain: MDLNGECKGGDGFIDRSRVRILLCDNDSTSLGEVFTLLSECSYQVTAVKSARQVIDALNAEGPDIDIILAEIDLPMAKGMKMLRYITRDKDLRRIPVIMMSRQDEVPVVVKCLKLGAADYLVKPLRTNELLNLWTHMWRRRRMLGLAEKNMLSYDFDLVGSDQSDPNTNSTNLFSDDTDDRSLRSTNPQRGNLSHQENEWSVATAPVHARDGGLGADGTATSSLAVTAIEPPLDHLAGSHHEPMKRNSNPAQFSSAPKKSRLKIGESSAFFTYVKSTVLRTNGQDPPLVDGNGSLHLHRGLAEKFQVVASEGINNTKQARRATPKSTVLRTNGQDPPLVNGNGSHHLHRGAAEKFQVVASEGINNTKQAHRSRGTEQYHSQGETLQNGASYPHSLERSRTLPTSMESHGRNYQEGNMNIPQVAMNRSKDSSQVDGSGFSAPNAYPYYMHGVMNQVMMQSAAMMPQYGHQIPHCQPNHPNGMTGYPYYHHPMNTSLQHSQMSLQNGQMSMVHHSWSPAGNPPSNEVRVNKLDRREEALLKFRRKRNQRCFDKKIRYVNRKRLAERRPRVKGQFVRKMNGVNVDLNGQPDSADYDDEEEEEEEEEEENRDSSPQDDALGT
B2: Two-component response regulator-like APRR1 (Arabidopsis thaliana (Mouse-ear cress)), Q9LKL2 (parent)
chain: B1 chain
partner: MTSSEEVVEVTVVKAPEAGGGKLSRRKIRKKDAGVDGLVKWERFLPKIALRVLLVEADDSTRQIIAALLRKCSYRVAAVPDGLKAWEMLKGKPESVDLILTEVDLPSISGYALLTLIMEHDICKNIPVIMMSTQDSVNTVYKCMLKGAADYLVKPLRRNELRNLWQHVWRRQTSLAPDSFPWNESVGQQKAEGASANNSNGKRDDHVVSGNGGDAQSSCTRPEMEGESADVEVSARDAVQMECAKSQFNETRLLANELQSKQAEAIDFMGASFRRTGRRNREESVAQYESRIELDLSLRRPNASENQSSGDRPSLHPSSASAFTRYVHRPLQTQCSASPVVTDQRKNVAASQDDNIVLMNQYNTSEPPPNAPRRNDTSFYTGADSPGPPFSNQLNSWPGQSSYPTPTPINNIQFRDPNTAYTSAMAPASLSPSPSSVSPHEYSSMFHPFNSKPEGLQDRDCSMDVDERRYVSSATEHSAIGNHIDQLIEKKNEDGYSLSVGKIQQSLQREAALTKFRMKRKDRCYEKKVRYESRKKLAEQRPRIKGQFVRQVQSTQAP

Variants of: B1
Conditions: with ado1_arath ADO1, Q94BT6
ado1_arath ADO1, Q94BT6, sequence (Q94BT6 whole entry): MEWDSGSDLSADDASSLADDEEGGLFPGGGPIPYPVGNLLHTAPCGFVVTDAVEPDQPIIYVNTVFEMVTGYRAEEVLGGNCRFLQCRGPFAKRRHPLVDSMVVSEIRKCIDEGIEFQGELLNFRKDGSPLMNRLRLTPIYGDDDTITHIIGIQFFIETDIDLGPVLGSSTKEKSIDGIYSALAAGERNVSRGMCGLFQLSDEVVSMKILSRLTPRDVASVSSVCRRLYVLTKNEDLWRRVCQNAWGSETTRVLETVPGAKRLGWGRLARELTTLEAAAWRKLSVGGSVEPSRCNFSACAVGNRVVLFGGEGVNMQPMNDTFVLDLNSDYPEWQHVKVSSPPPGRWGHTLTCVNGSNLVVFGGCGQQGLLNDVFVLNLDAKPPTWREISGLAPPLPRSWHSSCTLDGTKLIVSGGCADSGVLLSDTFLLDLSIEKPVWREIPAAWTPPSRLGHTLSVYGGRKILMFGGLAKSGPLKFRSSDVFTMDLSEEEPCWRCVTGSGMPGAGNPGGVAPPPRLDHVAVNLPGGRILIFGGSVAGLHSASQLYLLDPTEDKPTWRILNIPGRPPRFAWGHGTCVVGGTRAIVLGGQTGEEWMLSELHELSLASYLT

Row | effect of a mutation on the interaction | Variant
1 | decreasing interaction | P96L

Variants of: B2
Conditions: with aprr5_arath APRR5, Q6LA42

Row | effect of a mutation on the interaction | Variant
2 | disrupting interaction | P96L

Variants of: B2
Conditions: with aprr5_arath APRR5, Q6LA42
Remark: another data set of the same source

Row | effect of a mutation on the interaction | Variant
3 | decreasing interaction | P124S
